Measurements from paper PMC4579600, “Structure of HCMV glycoprotein B in the postfusion conformation bound to a neutralizing human antibody” (Nature Communications, 2015).
Several values for one entry are separate records, joined by “and”; a condition that tells them apart may be missing. Equal values may be shown once.

Experiments:
[1] = molecular target: HCMV glycoprotein B ectodomain ΔNgB-glyco (HCMV (Merlin strain)) (UniProt F5HB53)
[2] = molecular target: 1G2 IgG heavy chain Y109A (human); test: SPR
[3] = molecular target: 1G2 IgG heavy chain S32A (human); test: SPR
[4] = molecular target: 1G2 IgG light chain Y50A (human); test: SPR
[5] = molecular target: 1G2 IgG heavy chain Y103A (human); test: SPR
[6] = molecular target: 1G2 IgG light chain R51A (human); test: SPR
[7] = molecular target: 1G2 IgG heavy chain R31S (human); test: SPR
[8] = molecular target: 1G2 IgG heavy chain N102A (human); test: SPR
[9] = molecular target: 1G2 IgG (neutralizing human monoclonal antibody) (human); test: SPR
[10] = molecular target: 1G2 IgG heavy chain F104A (human); test: SPR
[11] = molecular target: T1, HCMV virion gB (strain VR1814) (Human cytomegalovirus (HHV-5), strain …, UniProt Q69163, strain); test: co-IP; cushion-purified VR1814 virions (500 μg) lysed in 1% NP40, incubated with 10 μg 1G2 for 16 h at 4 °C, Dynabeads Protein A, blot with ITC88; conditions: one partner purified
T1 construct: also called gB from virions; source: cushion-purified VR1814 virions, lysed in 1% NP40

full-length WT HCMV gB [12] = molecular target: T2, full-length WT HCMV gB (HCMV (strain ), UniProt F5HB53); test: flow cytometry on cells; BHK cells electroporated with full-length gB RNA, surface stained with 1 μg antibody per sample, goat anti-human IgG Alexa Fluor 647; gated on viable, dsRNA+ cells; conditions: one partner purified
T2 construct: also called FL-gB; membrane-anchored full-length gB; source: BHK cells electroporated with RNA encoding full-length gB, on the cell surface

full-length WT HCMV gB [13] = molecular target: T2, full-length WT HCMV gB; test: cell-based or functional assay
[14] = molecular target: T3, HCMV glycoprotein B ectodomain gB-698glyco (Human cytomegalovirus, Merlin, UniProt F5HB53, Ile156His | His157Arg | Trp240Asn | Tyr242Thr | Cys246Ser | Arg457Ser | …); test: co-IP; soluble gB ectodomain (gB-698glyco) in 1% NP40, incubated with 10 μg 1G2 for 16 h at 4 °C, Dynabeads Protein A, blot with ITC88; conditions: both partners purified
T3 construct: also called postfusion gB; soluble gB ectodomain; source: CHO lec- cells, stably expressed, secreted, purified (Ni-NTA, SEC)

Molecule: 1G2 IgG (neutralizing human monoclonal antibody)
- neutralisation EC50, HCMV TB40/E infection of ARPE-19 epithelial cells [1]: 0.1 µg/mL

Molecule: HCMV glycoprotein B ectodomain ΔNgB-glyco (from UniProt F5HB53 25-698) (domain or fragment)
- Kd [2]: 0.24 nM
- koff [2]: 7.67e-05 s⁻¹
- kon [2]: 324000 M⁻¹ s⁻¹
- Kd [3]: 0.03 nM
- koff [3]: 1.06e-05 s⁻¹
- kon [3]: 396000 M⁻¹ s⁻¹
- Kd [4]: 0.33 nM
- koff [4]: 0.000118 s⁻¹
- kon [4]: 357000 M⁻¹ s⁻¹
- Kd [5]: 2.36 nM
- koff [5]: 0.000766 s⁻¹
- kon [5]: 325000 M⁻¹ s⁻¹
- Kd [6]: 0.16 nM
- koff [6]: 5.11e-05 s⁻¹
- kon [6]: 327000 M⁻¹ s⁻¹
- Kd [7]: 0.22 nM
- koff [7]: 6.07e-05 s⁻¹
- kon [7]: 273000 M⁻¹ s⁻¹
- Kd [8]: 1.71 nM
- koff [8]: 0.000526 s⁻¹
- kon [8]: 306000 M⁻¹ s⁻¹
- Kd [9]: 0.13 nM and 0.17 nM
- koff [9]: 3.75e-05 s⁻¹ and 6.36e-05 s⁻¹
- kon [9]: 295000 M⁻¹ s⁻¹ and 370000 M⁻¹ s⁻¹
- Kd [10]: 1.53 nM
- koff [10]: 0.00045 s⁻¹
- kon [10]: 294000 M⁻¹ s⁻¹

Molecule: ΔNgB-glyco E292A (from UniProt F5HB53 25-698) (domain or fragment)
- Kd [9]: 0.82 nM
- koff [9]: 0.000108 s⁻¹
- kon [9]: 132000 M⁻¹ s⁻¹

Molecule: ΔNgB-glyco F290A (from UniProt F5HB53 25-698) (domain or fragment)
- Kd [9]: 3.79 nM
- koff [9]: 0.000249 s⁻¹
- kon [9]: 66000 M⁻¹ s⁻¹

Molecule: ΔNgB-glyco F297A (from UniProt F5HB53 25-698) (domain or fragment)
- Kd [9]: 13.7 nM
- koff [9]: 0.000267 s⁻¹
- kon [9]: 19000 M⁻¹ s⁻¹

Molecule: ΔNgB-glyco F298A (from UniProt F5HB53 25-698) (domain or fragment)
- Kd [9]: 0.26 nM
- koff [9]: 5.59e-05 s⁻¹
- kon [9]: 214000 M⁻¹ s⁻¹

Molecule: ΔNgB-glyco I299A (from UniProt F5HB53 25-698) (domain or fragment)
- Kd [9]: 0.58 nM
- koff [9]: 9e-05 s⁻¹
- kon [9]: 155000 M⁻¹ s⁻¹

Molecule: ΔNgB-glyco N281A (from UniProt F5HB53 25-698) (domain or fragment)
- Kd [9]: 0.21 nM
- koff [9]: 4.57e-05 s⁻¹
- kon [9]: 218000 M⁻¹ s⁻¹

Molecule: ΔNgB-glyco N284A (from UniProt F5HB53 25-698) (domain or fragment)
- Kd [9]: 0.24 nM
- koff [9]: 7.66e-05 s⁻¹
- kon [9]: 320000 M⁻¹ s⁻¹

Molecule: ΔNgB-glyco N286A (from UniProt F5HB53 25-698) (domain or fragment)
- Kd [9]: 0.07 nM
- koff [9]: 4.89e-05 s⁻¹
- kon [9]: 724000 M⁻¹ s⁻¹

Molecule: ΔNgB-glyco N293A/D295A (from UniProt F5HB53 25-698) (domain or fragment)
- Kd [9]: 0.35 nM
- koff [9]: 8.43e-05 s⁻¹
- kon [9]: 240000 M⁻¹ s⁻¹

Molecule: ΔNgB-glyco T283A (from UniProt F5HB53 25-698) (domain or fragment)
- Kd [9]: 0.23 nM
- koff [9]: 6.99e-05 s⁻¹
- kon [9]: 310000 M⁻¹ s⁻¹

Molecule: ΔNgB-glyco Y280A (from UniProt F5HB53 25-698) (domain or fragment)
- Kd [9]: 29.3 nM
- koff [9]: 0.000195 s⁻¹
- kon [9]: 7000 M⁻¹ s⁻¹

Molecule: ΔNgB-glyco YND-AAA (Y280A/N293A/D295A) (from UniProt F5HB53 25-698) (domain or fragment)
- Kd [9]: 18.7 nM
- koff [9]: 0.000392 s⁻¹
- kon [9]: 21000 M⁻¹ s⁻¹

B1: 1G2 IgG (neutralizing human monoclonal antibody) (antibody, V domains shown)
VH: QLQLQESGPGLVKPSETLSLTCTVSGASIDRSTYYWGWIRQPPGKGLEWIANIYYNGRAVYSPSLKSRVTISVDTSKNQFSLKVRSLTAADTAVYYCATRWNYFFDFDYWGRGTLVTVSS
VL: QSVLTQPPSASGTPGQRVTISCSGSSSNIETNYVSWYQQFPGTAPKLLIYRNNQRPSGVPDRFSGSKSGTSASLAISGLRSEDEAEYYCGTWDDNSWVFGGGTKLTVL
notes: IgG1; also called 1G2 mAb; WT 1G2
- binding result [11]: binds
- binding result (full-length WT HCMV gB [12]): binds
- neutralisation EC50, gB on virus of HCMV strain 8816 (Ala287), ARPE-19 cells (full-length WT HCMV gB [13]): 0.046 µg/mL
- neutralisation EC50, gB on virus of HCMV strain 8819 (Ala287), ARPE-19 cells (full-length WT HCMV gB [13]): 0.485 µg/mL
- neutralisation EC50, gB on virus of HCMV strain 8819 (Ala287), NHDF cells (full-length WT HCMV gB [13]): 0.85 µg/mL
- neutralisation EC50, gB on virus of HCMV strain 8822 (Ala287), ARPE-19 cells (full-length WT HCMV gB [13]): 0.319 µg/mL
- neutralisation EC50, gB on virus of HCMV strain 8822 (Ala287), NHDF cells (full-length WT HCMV gB [13]): 0.485 µg/mL
- neutralisation EC50, gB on virus of HCMV strain 8824 (Ala287), ARPE-19 cells (full-length WT HCMV gB [13]): 0.019 µg/mL
- neutralisation EC50, gB on virus of HCMV strain 8824 (Ala287), NHDF cells (full-length WT HCMV gB [13]): 0.043 µg/mL
- neutralisation EC50, gB on virus of HCMV strain TM-28175 (Ala287), NHDF cells (full-length WT HCMV gB [13]): 0.138 µg/mL
- neutralisation EC50, gB on virus of HCMV strain TR (Ala287), ARPE-19 cells (full-length WT HCMV gB [13]): 0.248 µg/mL
- neutralisation EC50, gB on virus of HCMV strain TR (Ala287), NHDF cells (full-length WT HCMV gB [13]): 0.303 µg/mL
- binding result [14]: binds
